Test results taken from US20220289806A1 (CYTIMM THERAPEUTICS, published 2022).

Tests used:
[1] = target: T1, IL-2Rβγ on human CD8+CD45RA+CD25low naïve T cells (human, UniProt P14784 27-551; P31785 23-369); assay: cell-based or functional assay
T1 sequence (looked up) 1: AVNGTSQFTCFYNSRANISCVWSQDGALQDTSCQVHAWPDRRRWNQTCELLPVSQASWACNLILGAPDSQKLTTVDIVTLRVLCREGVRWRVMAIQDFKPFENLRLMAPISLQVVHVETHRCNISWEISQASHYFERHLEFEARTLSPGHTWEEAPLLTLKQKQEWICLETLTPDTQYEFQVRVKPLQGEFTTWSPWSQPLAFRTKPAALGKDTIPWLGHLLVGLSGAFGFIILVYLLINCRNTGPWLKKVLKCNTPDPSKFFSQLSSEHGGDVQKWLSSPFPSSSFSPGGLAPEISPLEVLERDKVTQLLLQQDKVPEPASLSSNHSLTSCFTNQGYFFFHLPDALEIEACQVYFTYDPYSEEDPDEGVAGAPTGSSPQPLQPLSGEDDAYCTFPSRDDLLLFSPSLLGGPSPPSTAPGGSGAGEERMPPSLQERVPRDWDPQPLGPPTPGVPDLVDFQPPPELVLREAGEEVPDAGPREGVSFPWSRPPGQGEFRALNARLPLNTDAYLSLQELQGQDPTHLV
T1 sequence (looked up) 2: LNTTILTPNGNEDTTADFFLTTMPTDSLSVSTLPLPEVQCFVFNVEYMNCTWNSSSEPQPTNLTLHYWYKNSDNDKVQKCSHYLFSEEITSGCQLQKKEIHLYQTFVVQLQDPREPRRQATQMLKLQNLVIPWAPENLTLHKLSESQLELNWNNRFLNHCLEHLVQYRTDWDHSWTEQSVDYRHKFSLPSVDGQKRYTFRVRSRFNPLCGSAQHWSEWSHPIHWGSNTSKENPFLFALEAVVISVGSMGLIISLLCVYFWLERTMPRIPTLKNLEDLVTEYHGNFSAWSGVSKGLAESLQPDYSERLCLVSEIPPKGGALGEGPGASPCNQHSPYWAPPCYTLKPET

[2] = target: T2, IL-2Rαβγ on human T cells (human, UniProt P01589 22-272; P14784 27-551; P31785 23-369); assay: cell-based or functional assay
T2 sequence (looked up) 1: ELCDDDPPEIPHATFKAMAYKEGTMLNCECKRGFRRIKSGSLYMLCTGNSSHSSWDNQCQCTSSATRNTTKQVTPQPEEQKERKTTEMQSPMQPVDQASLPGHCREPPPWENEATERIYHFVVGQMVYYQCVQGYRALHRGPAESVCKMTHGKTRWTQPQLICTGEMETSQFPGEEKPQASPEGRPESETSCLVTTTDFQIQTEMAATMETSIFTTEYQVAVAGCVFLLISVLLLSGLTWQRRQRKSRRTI
T2 sequence (looked up) 2: T1 sequence (looked up) 1
T2 sequence (looked up) 3: T1 sequence (looked up) 2

[3] = target: T3, IL-2Rα in human Fc fusion protein format (ACROBiosystems) (human, UniProt P01589 22-217, limits assumed); assay: Octet QKe (biolayer interferometry): IL-2Rα-human Fc on AHC sensors, serial dilutions of the IL-2 variant [cont.]
T3 construct: Bought reagent, captured on anti-Human IgG Fc Capture (AHC) sensors; also called CD25; not shown: human Fc
T3 sequence (looked up): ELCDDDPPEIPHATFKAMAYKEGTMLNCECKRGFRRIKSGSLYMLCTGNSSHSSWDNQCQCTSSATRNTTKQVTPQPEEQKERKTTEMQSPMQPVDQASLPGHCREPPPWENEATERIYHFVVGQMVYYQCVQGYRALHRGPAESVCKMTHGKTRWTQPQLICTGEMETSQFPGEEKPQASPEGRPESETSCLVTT
Text: IL-2Rα or IL-2Rβ in human Fc fusion protein format (ACROBiosystems) were captured on anti-Human IgG Fc Capture (AHC) sensors. […] Dissociation was detected following transfer of sensors into wells containing buffer alone. Data were collected and analyzed by Octet User Software. For analysis of the kinetics constants, 1:1 curve fitting model was used.

- EC50 of STAT5 phosphorylation, CD25-CD8+ naïve T (IL-2Rβγ) [1]: 1.6 µg/mL
- EC50 of STAT5 phosphorylation, CD25+CD4+ T (IL-2Rαβγ) [2]: 1.65 µg/mL
- binding result [3]: no binding (tested: not printed)
B1: Y31C-PEG20 + F42K (ligand)
chain: APTSSSTKKTQLQLEHLLLDLQMILNGINNCKNPKLTRMLTKKFYMPKKATELKHLQCLEEELKPLEEVLNLAQSKNFHLRPRDLISNINVIVLELKGSETTFMCEYADETATIVEFLNRWITFSQSIISTLT
modifications: maleimide-PEG 20K on Cys 31
notes: rhIL-2 (C125S) background with Y31C and F42K, PEGylated at Cys 31; not shown: His tag
